Like-named read-outs stand apart in the source and are kept apart here.
Experiments:
[1] = molecular target: recombinant human IL4Rα-his protein (human) (UniProt P24394); test: SPR Biacore, mAb captured, IL4Rα-his analyte
[2] = molecular target: recombinant human IL4Rα-his protein (human) (UniProt P24394); test: IL4-IL4Rα blocking ELISA, IL4Rα-his coated, biotinylated IL4
[3] = molecular target: human IL4Rα on HEK293T-IL4Rα-STAT6-STAT6LUC-LB2 cells (human) (UniProt P24394); test: cell-based or functional assay
[4] = molecular target: recombinant human IL4Rα-his protein (human) (UniProt P24394); test: benchmark blocking ELISA, competitor benchmark coated (self-competition), biotinylated IL4Rα-his
[5] = molecular target: recombinant human IL4Rα-his protein (human) (UniProt P24394); test: capture ELISA, mAb captured by anti-human IgG, biotinylated IL4Rα-his
[6] = molecular target: recombinant human IL4Rα-his protein (human) (UniProt P24394); test: SPR Biacore, mAb captured, IL4Rα-his analyte; remark: listed apart in the source
[7] = molecular target: human IL4Rα expressed on the surface of 293F-IL4Rα cells (human) (UniProt P24394); test: flow cytometry on 293F-IL4Rα cells
[8] = molecular target: human IL4Rα expressed on the surface of 293F-IL4Rα cells (human) (UniProt P24394); test: flow cytometry on 293F-IL4Rα cells; remark: listed apart in the source
[9] = molecular target: recombinant human IL4Rα-his protein (human) (UniProt P24394); test: IL4-IL4Rα blocking ELISA, IL4Rα-his coated, biotinylated IL4; remark: listed apart in the source
[10] = molecular target: recombinant human IL4Rα-his protein (human) (UniProt P24394); test: SPR Biacore, mAb captured, IL4Rα-his analyte; remark: listed apart in the source
[11] = molecular target: cynomolgus monkey IL4Rα-his protein (cynomolgus monkey); test: indirect ELISA, cynomolgus IL4Rα-his coated
[12] = molecular target: human IL4Rα on HEK293T-IL4Rα-STAT6-STAT6LUC-LB2 cells (human) (UniProt P24394); test: cell-based or functional assay; remark: listed apart in the source
[13] = molecular target: marmoset monkey IL4Rα-his protein (marmoset monkey); test: indirect ELISA, marmoset IL4Rα-his coated
[14] = molecular target: human IL4Rα expressed on the surface of 293F-IL4Rα cells (human) (UniProt P24394); test: cell-based ligand blocking FACS, 293F-IL4Rα cells, biotinylated IL4

cynomolgus monkey IL4Rα-his protein (cynomolgus monkey), sequence (chain, as listed by the source): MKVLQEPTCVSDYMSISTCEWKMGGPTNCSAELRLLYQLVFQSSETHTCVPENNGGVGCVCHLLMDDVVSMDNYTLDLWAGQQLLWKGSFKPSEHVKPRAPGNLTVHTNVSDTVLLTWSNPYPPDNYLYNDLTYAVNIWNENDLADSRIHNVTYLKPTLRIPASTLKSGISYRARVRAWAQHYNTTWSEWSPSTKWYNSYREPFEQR
marmoset monkey IL4Rα-his protein (marmoset monkey), sequence (chain, as listed by the source limits assumed): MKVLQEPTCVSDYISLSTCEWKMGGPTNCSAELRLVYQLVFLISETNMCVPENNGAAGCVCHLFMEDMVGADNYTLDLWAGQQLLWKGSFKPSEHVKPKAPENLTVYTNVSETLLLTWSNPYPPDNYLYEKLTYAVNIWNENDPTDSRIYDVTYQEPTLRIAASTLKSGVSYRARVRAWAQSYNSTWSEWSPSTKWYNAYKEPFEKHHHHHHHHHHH

- Kd [1]: 0.746 nM
- IC50 [2]: 2.06 nM
- Inhibition of IL4-induced STAT6 phosphorylation (IC50, nM) [3]: 0.37 nM
- Inhibition of IL13-induced STAT6 phosphorylation (IC50, nM) [3]: 0.48 nM
- IC50 [4]: 0.19 nM
- EC50 [5]: 0.05 nM
- Kd [6]: 0.466 nM
- EC50 [7]: 0.4 nM
- EC50 [8]: 0.46 nM
- IC50 [9]: 1.74 nM
- Dissociation (%) [10]: -2.64%
- End (RU) [10]: 70 RU
- Kd [10]: 0.188 nM
- Start (RU) [10]: 71.9 RU
- koff [10]: 6.25e-05 s⁻¹
- kon [10]: 333000 M⁻¹ s⁻¹
- EC50 [11]: 0.67 nM
- Inhibition of IL4-induced STAT6 phosphorylation (IC50, nM) [12]: 0.7 nM
- Inhibition of IL13-induced STAT6 phosphorylation (IC50, nM) [12]: 0.84 nM
- EC50 [13]: 1.72 nM
- IC50 [14]: 0.42 nM
B1: anti-IL4Rα antibody benchmark (dupilumab) (antibody, INN chains, looked up, V domains shown)
VH: EVQLVESGGGLEQPGGSLRLSCAGSGFTFRDYAMTWVRQAPGKGLEWVSSISGSGGNTYYADSVKGRFTISRDNSKNTLYLQMNSLRAEDTAVYYCAKDRLSITIRPRYYGLDVWGQGTTVTVSS
VL: DIVMTQSPLSLPVTPGEPASISCRSSQSLLYSIGYNYLDWYLQKSGQSPQLLIYLGSNRASGVPDRFSGSGSGTDFTLKISRVEAEDVGFYYCMQALQTPYTFGQGTKLEIKR

From patent US20240343815A1
